Measurements published in US20150231240A1, “ANTI-C16ORF54 ANTIBODIES AND METHODS OF USE THEREOF” (priority 2012, published 2015).

Assays:
[1] = system: KG-1 (acute myeloid leukemia) xenograft; format: in vivo, NOD-SCID mice; settings: Table 44; dose not given; KG-1 AML model
Procedure: Subcutaneous tumors are generated by injection of 1×10^7 cancer cells in a mixture of PBS (without magnesium or calcium) and BD Matrigel™ (BD Biosciences) at a 1:1 ratio in the right flank of female SCID or nu^−/− mice. The injected total volume per mouse is […] with 50% being Matrigel (BD Biosciences). Mice are randomized once tumors reach a size between 65-200 mm^3. Antibodies are administered weekly, and body weights and tumors are measured once and twice weekly, respectively. Tumor volume is calculated as described (van der Horst et al. (2009) Neoplasia 11: 355-364). As a negative control, mice are injected with either purified mouse IgG or PBS; or a purified monoclonal antibody that recognizes an antigen other than C16orf54.
Anti-C16orf54 antibodies were tested for their anti-tumor activity in an animal-tumor model. For these studies, the cell line KG-1 (acute myeloid leukemia) was obtained from ATCC and cultured according to the suppliers' protocols. Animals were obtained from Taconic (Hudson, N.Y.). Studies were conducted with anti-C16orf54 antibodies and antibody-drug conjugates (ADCs) of these antibodies.
In these experiments, 4-6 week-old immunodeficient NOD-SCID female mice were used for the KG-1 tumor model. Mice were subcutaneously injected on the right flank with 6×10^6 viable cells (KG-1) in a mixture of PBS (without magnesium or calcium) and BD Matrigel™ (BD Biosciences). Once the tumor reached a size between 65-200 mm^3 mice were randomized. Anti-C16orf54 antibodies were administered weekly, and bodyweights and tumors were measured once and twice weekly, respectively. Tumor volume was calculated as described (van der Horst et al., supra). Experiments were performed on groups of at least eight animals per experimental point.
Statistical significance between treatment and control groups was calculated using the Graphpad Prism® software package and applying Student's two-tailed t-test. A p-value of less than 0.05 was considered significant.

human C16orf54 [2] = biological target: T1, human C16orf54 (human, UniProt Q6UWD8 1-224); assay: flow cytometry, 10 ug/ml antibody, D42M1-huC16orf54 cells
T1 construct: also called huC16orf54; hC16orf54
T1 sequence: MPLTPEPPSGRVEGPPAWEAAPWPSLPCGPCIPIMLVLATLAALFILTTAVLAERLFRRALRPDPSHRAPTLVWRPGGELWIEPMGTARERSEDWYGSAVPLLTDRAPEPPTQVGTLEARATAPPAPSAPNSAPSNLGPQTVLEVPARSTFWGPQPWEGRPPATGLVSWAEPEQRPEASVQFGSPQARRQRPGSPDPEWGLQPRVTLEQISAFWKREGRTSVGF
Procedure: (§1) Anti-C16orf54 antibodies which bound to human C16orf54 were tested for their reactivity with human C16orf54 and their crossreactivity with C16orf54 from cynomolgous monkeys (cyno C16orf54) using flow cytometry. Sarcoma cells transfected with and expressing human C16orf54 or cyno C16orf54 were washed with PBS with 0.1% BSA, incubated with FcX receptor blocking solution (BioLegend) for 15 minutes, incubated with 10 μg/ml of anti-C16orf54 antibody for 1 hour at 4° C., washed twice with PBS with 0.1% BSA, incubated with 20 μg/ml of R-Phycoerythrin-AffiniPure F(ab′)2 Fragment Goat Anti-Mouse IgG, Fcγ Fragment Specific (Jackson ImmunoResearch) for 30 minutes at 4° C., washed twice with PBS with 0.1% BSA, incubated with the viability dye TO-PRO-3 iodide (Life Technologies), and immediately analyzed on a MACSQuant Analyzer instrument (Miltenyi). For each cell line and anti-C16orf54 antibody, a fold change was derived by dividing the median fluorescence intensity for Phycoerythrin in the live cell population for the anti-C16orf54 antibody by the median fluorescence intensity for Phycoerythrin in the live cell population for the IgG isotype control antibody. A number of anti-C16orf54 antibodies (see, e.g., R29-8-57B, R29-8-136C, R29-7-1C, R29-67-7A, R29-67-4A, and R29-7-2A) bind human C16orf54 and also bind (e.g., are crossreactive with) cyno C16orf54.

human C16orf54 [3] = biological target: T1, human C16orf54; assay: flow cytometry titration, KG1 cells (endogenous human C16orf54)
[4] = biological target: T2, cynomolgus monkey C16orf54 (cynomolgus monkey (Macaca fascicularis), UniProt Q6UWD8 1-224 (human entry)); assay: flow cytometry, 10 ug/ml antibody, F279-cyno-C16orf54 cells
T2 construct: also called cyno C16orf54; cyno-C16orf54
T2 chain: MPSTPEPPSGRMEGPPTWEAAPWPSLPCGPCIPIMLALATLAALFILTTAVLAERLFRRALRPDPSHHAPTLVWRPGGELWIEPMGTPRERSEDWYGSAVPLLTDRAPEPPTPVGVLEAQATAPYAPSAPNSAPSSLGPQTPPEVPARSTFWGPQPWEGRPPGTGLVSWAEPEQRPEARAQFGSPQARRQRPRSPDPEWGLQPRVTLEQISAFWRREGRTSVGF
Procedure: as §1

human C16orf54 [5] = biological target: T1, human C16orf54; assay: cell-based or functional assay

Molecule	TGI [1] [%]	Volume [1] [mm^3]	Median fold change relative to IgG control (human C16orf54 [2]) [fold]	EC50 (human C16orf54 [3]) [nM]	Median fold change relative to IgG control [4] [fold]	IC50 nM, cell viability, C16orf54 expressing sarcoma line 2, 72 hours (human C16orf54 [5]) [nM]	IC50 (nM), cell viability, C16orf54 expressing Sarcoma line 1, 72 hours (human C16orf54 [5]) [nM]
O=P1(N(CCCl)CCCl)NCCCO1 (stereo not drawn) [Cyclophosphamide]	−42	1580	–	–	–	–	–
R29-8-50C (antibody, V domains shown, Murine monoclonal antibody from a hybridoma) VH: EVKLVESGGGLVKPGGSLKFSCAASGFTFSSYAVSWVRQTPEKRLEWVASITSGGRTYYPDSVKGRFTISRDNARSMLYLHMSSLRSEDTAMYYCTRGWDENDLWGQGTTLTVSS VL: DVVMTQTPLSLPVSLGDQASISCRSSQSLVYSNGNTYLHWYLQRPGQSPQLLIYKVSNRFSGVPDRFSGSGSGTDFTLKISRVEAEDLGVYFCSQTTHVPWTFGGGTKLEIK	–	–	159	0.7	3.2	–	–
R29-8-19B (antibody, V domains shown, Murine monoclonal antibody from a hybridoma) VH: EVKLVESGGGLVKPGGSLKFSCAASGFTFSSYAVSWVRQTPEKRLEWVASITSGGRTYYPDSVKGRFTISRDNARSMLYLHMSSLRSEDTAMYYCTRGWDENDLWGQGTTLTVSS VL: DVVMTQTPLSLPVSLGDQASISCRSSQSLVYSNGNTYLHWYLQKPGQSPQLLIYKVSNRFSGVPDRFSGSGSGTDFTLKISRVEAEDLGVYFCSQTTHVPWTFGGGTKLEIK	–	–	198	0.9	4.5	–	–
R29-7A-54C (antibody, V domains shown, Murine monoclonal antibody from a hybridoma; also called R29-7-54C) VH: QVQLKESGPGLVAPSQSLSITCTVSGFSLTDYAISWIRQPPGKGLEWLGVIWGGGRTYSNSALKSRLSISKDNSRSQIFLKMNSLQTDDTAMYYCAKHEEVSRFAYWGQGTLVTVSV VL: DVVLTQTPLSLPVSLGDQASISCRSSQSLVYSNGNSYLHWYLQKPGQSPKLLIYKVSNRFSGVPDRFSGSGSGTDFTLKITRVEAEDLGVYFCSQSTHIPLTFGAGTKLELK	–	–	12.1	–	1	–	–
R29-8-9B (antibody, V domains shown, Murine monoclonal antibody from a hybridoma) VH: EVKLVESGGGVVKPGGSLKLSCAASGFTFSSYAMSWFRQTSEMSLEWVASITGGGGTYYPDSVKGRFTISRDTVRNILYLQMRSLRSGDTAIYYCARGWDENDYWGQGTTLTVSS VL: DVVMTQIPLSLPVSLGDQASISCRSSQSLVFSNGNTYLHWYFQKPGQSPKLLIYKVSNRFSGVPDRFSGSGSGTDFILRISRVEAEDLGVYFCSQSTHVPWTFGGGTKLEIK	–	–	194	1.5	2	–	–
R29-8-120B (antibody, V domains shown, Murine monoclonal antibody from a hybridoma) VH: KVNLVESGGGLVKAGGSLKLSCAASGFTFSIYAMSWFRQTPEKRLEWVASITGGGTNFYPDSVRGRFTISRDNVRNILYLQMSSLRSEDTAMYYCARGWDENDYWGQGTTLTVSS VL: DVVMTQTPLSLPVSLGDQASISCRSSQSLVYSNGNTYLHWYLQKPGQSPKLLIYKVSNRFSGVPDRFSGSGSGTDFTLKISRVEAEDLGVYFCSQSTHVPWTFGGGTKLEIK	–	–	106	2.6	5.2	–	–
R29-7A-53A (antibody, V domains shown, Murine monoclonal antibody from a hybridoma; also called R29-7-53A) VH: QVQLKESGPGLVAPSQSLSITCTVSGFSLTDYAISWIRQPPGKGLEWLGVIWGGGRTYSNSALKSRLSISKDNSRSQIFLKMNSLQTDDTAMYYCAKHEEVSRFAYWGQGTLVTVSV VL: DVVLTQTPLSLPVSLGDQASISCRSSQSLVYSNGNSYLHWYLQKPGQSPKLLIYKVSNRFSGVPDRFSGSGSGTDFTLKITRVEAEDLGVYFCSQSTHIPLTFGAGTKLELK	–	–	5.7	–	1.2	–	–
R29-8-28C (antibody, V domains shown, Murine monoclonal antibody from a hybridoma) VH: EVKLVESGGGVVKPGGSLTLSCAASGFTFSNYAVSWFRQTPEKRLEWVASITSGGRTYYPDSMKGRFTISRDNARNILYLQMSSLRSEDTAIYYCGRGWDENDYWGQGTTLTVSS VL: DVVMTQTPLSLPVSLGDQASISCRSSQSLVYSNGNTYLHWYLQKPGQSPKLLIYKVSNRFSGVPDRFSGSGSGTDFTLKINRVEAEDLGVYFCSQTTHVPWTFGGGTKLEIK	–	–	156	2.1	3.3	–	–
R29-8-12A (antibody, V domains shown, Murine monoclonal antibody from a hybridoma) VH: EVKLVESGGGLVKPGGSLKFSCAASGFTFSSYAVSWVRQTPEKRLEWVASITSGGRTYYPDSVKGRFTISRDNARSMLYLHMSSLRSEDTAMYYCTRGWDENDLWGQGTTLTVSS VL: DVVMTQTPLSLPVSLGDQASISCRSSQSLVYSNGNTYLHWYLQKPGQSPQLLIYKVSNRFSGVPDRFSGSGSGTDFTLKISRVEAEDLGVYFCSQTTHVPWTFGGGTKLEIK	–	–	193	1.1	3.6	–	–
R29-8-36C (antibody, V domains shown, Murine monoclonal antibody from a hybridoma) VH: EVKLVESGGGLVKPGGSLKFSCAASGFTFSSYAVSWVRQTPEKRLEWVASITSGGRSYYPDSVKGRFTISRDNARSMLYLHMSSLRSEDTAMYYCTRGWDENDLWGQGTTLTVSS VL: DVVMTQTPLSLFVSLGDQASISCRSSQSLLYSNGNTYLHWYLQRPGQSPQLLIYKVSNRFSGVPDRFSGSGSGTDFTLKISRVEAEDLGVYFCSQTTHVPWTFGGGTKLEIK	–	–	184	0.6	3.6	–	–
R29-7-1C-mcMMAF (protein, maleimidocaproyl-monomethylauristatin F (MC-MMAF) on reduced cysteine thiols of the antibody; positions not given) VH: DVQLQESGPGLVKPSQSLSLTCTVTGYSITSDYAWNWIRQFPGNKLEWMGYISYSGSIRYNPSLKSRISITRDTSKNQFFLQLNSVTTEDTATYYCAREKYDNYYYAMDYWGQGTSVTVSS VL: DIVMSQSPSSLAVSVGEKVTLSCKSSQNLLYSTNQKNYLAWYQQKPGQSPKLLIYWASTRESGVPDRFTGSGSGTDFTLTISSVKAEDLAVYYCQQYYSYRTFGGGTKLEIK	–	–	–	–	–	0.2	0.1
R29-67-7A mcMMAF (protein, maleimidocaproyl-monomethylauristatin F (MC-MMAF) on reduced cysteine thiols of the antibody; positions not given) VH: DVQLQESGPGLVKPSQSLSLTCTVTGYSITSDYAWNWIRQFPGNKLEWMGYINYSGRTRYNPSLNSRISLTRDTSTNQFFLQLNSVTTEDTATYYCARENYDYEFYAMDYWGQGTSVTVSS VL: DIVMSQSPSSLAVSVGEKVTMSCKSSQNLLYSSNQKNYLAWYQQKPGQSPKLLIYWASTRESGVPDRFTGSGSGTDFTLTISSVKAEDLAVYYCQQYYIYRTFGGGTKLEIK	–	–	–	–	–	0.1	0.1
R29-8-57B mcMMAF (protein, maleimidocaproyl-monomethylauristatin F (MC-MMAF) on reduced cysteine thiols of the antibody; positions not given) VH: DVQLQESGPGLVKPSQSLSLTCTVTGYSITSDYAWNWIRQFPGNKLEWMGYINYSGSTRYNPSLKSRISITRDTSKNHFFLQLNSVTPEDTATYHCARERYDGVYYGMDYWGQGTSVTVSS VL: DIVMSQSPSSLAVSVGEKVTMSCKSSQSLLYSSNQKNYLAWYQQKPGQSPKLLIYWASTRESGVPDRFTGSGSGTDFTLTISSVKTEDLAVYYCQQYYSYRTFGGGTKLEIK	–	–	–	–	–	0.1	0.2
